Settings: Bos taurus; pH 7.1; 25 °C; Urea; CD; PIPES 20 mM; reversible: yes; whole UniProt chain shown

B1: Protein S100-G wild type, P02633 (protein)
chain: MSAKKSPEELKGIFEKYAAKEGDPNQLSKEELKLLLQTEFPSLLKGPSTLDELFEELDKNGDGEVSFEEFQVLVKKISQ
denaturant m value: 0.91 kcal/mol/M | denaturant midpoint (higher = more stable): 5.2 M | unfolding free energy: 4.78 kcal/mol

From FireProtDB (doi:10.1111/j.1432-1033.1988.tb14214.x)
